B1: 02-140 peptide phage clone (ErbB2-binding peptide 16) (peptide)
peptide: WTGWCLNPEESTWGFCSGYI
notes: From an EC-1 biased peptide phage library; also called EBP-16
B2: 02-124 peptide phage clone (ErbB2-binding peptide 14) (peptide)
peptide: WTGWCLNPEESTWGFCRSAG
notes: From an EC-1 biased peptide phage library; also called EBP-14
B3: 02-137 peptide phage clone (ErbB2-binding peptide 15) (peptide)
peptide: WTGWCLSPEESTWGFCRSAG
notes: From an EC-1 biased peptide phage library; also called EBP-15
B4: 02-135 peptide phage clone (ErbB2-binding peptide 17) (peptide)
peptide: WTGWCFDDNHSTWGFCTGSF
notes: From an EC-1 biased peptide phage library; also called EBP-17

Each binder was assayed against T1, purified ErbB2 ECD-polyhistidine-tagged protein (human, UniProt P04626 23-653) (assay: phage ELISA on coated CBECD, BSA as control).
T1 construct: also called CBECD; purified extracellular domain of ErbB2 with a His tag; not shown: polyhistidine tag
Experimental: SfmECDAP labeled wells were plated with 250 ng of a purified ErbB2 ECD-alkaline phosphatase fusion protein; CBECD labeled wells were plated with 250 ng of a purified ErbB2 ECD-polyhistidine-tagged protein; bovine serum albumin (denoted BSA) was used as a negative target control. E12 and CB1 are peptide phage clones identified independently that display an identical (ErbB2-binding) peptide. E12CB1-NA peptide phage clones were constructed to present, with and without a glycine-glycine-alanine linker, a shortened form of the peptide. […] G78 is a peptide phage clone that binds strongly to the Grb7 SH2 domain, used here as a negative peptide phage control. Library phage also serve as a negative peptide phage control. 9G6 is an antibody to the ECD of ErbB2.

Binder	binding result
B1	binds
B2	binds
B3	binds
B4	binds

These binders were tested against T2, native, intact ErbB2 extracted from the membranes of human breast cancer cells (human, UniProt P04626 23-1255) (assay: phage ELISA on captured membrane lysates).
T2 construct: Whole native receptor from cell membrane lysates, captured on plates by an antibody to the intracellular domain of ErbB2; Whole entry named; also called ErbB2 in solubilized membrane preparations / lysates of BT474 and SKBR3 cells
Experimental: The above identified peptide phage specifically bind to native, intact ErbB2 extracted from the membranes of human breast cancer cells that overexpress ErbB2. Plates were coated with 1 μg of an antibody that binds to the intracellular domain of ErbB2, followed by 100 μl of solubilized membrane preparations from two different breast cancer cell lines that overexpress ErbB2 (BT474 and SKBR3), and probed with CB1 peptide-phage, control library phage, and 9G6 anti-ErbB2. MCF7 cells serve as a (relative) negative target control, as MCF7 breast cancer cells express only a low level of ErbB2.

Binder	binding result
B1	binds
B2	binds
B3	binds
B4	binds

— patent US20030216309A1 (UNIVERSITY OF VERMONT AND STATE AGRICULTURAL COLLEGE, published 2003)
